Measurements published in patent US20240132563A1.

What was measured:
Test in all cases: cell-based or functional assay
[1] = biological target: IL-18 polypeptide C155 (V11I, C38A, D40A, K53A, C76A, C127A) (human) (UniProt Q14116)
[2] = biological target: IL-18 polypeptide of SEQ ID NO: 60 (E6K, C38Q, K53A) (human) (UniProt Q14116)
[3] = biological target: IL-18 polypeptide of SEQ ID NO: 1 (native sequence) (human) (UniProt Q14116)
[4] = biological target: IL-18 polypeptide of SEQ ID NO: 48 (C38S, C68S, C76S, C127S, K70C) (human) (UniProt Q14116)
[5] = biological target: IL-18 polypeptide of SEQ ID NO: 42 (E06K, K53A, S55A, T63A) (human) (UniProt Q14116)
[6] = biological target: IL-18 polypeptide C159 (V11I, C38A, K53A, C76A, H109A, C127A) (human) (UniProt Q14116)
[7] = biological target: IL-18 polypeptide of SEQ ID NO: 62 (E6K, C38A, K53A, C127A) (human) (UniProt Q14116)
[8] = biological target: IL-18 polypeptide of SEQ ID NO: 37 (S55A) (human) (UniProt Q14116)
[9] = biological target: IL-18 polypeptide of SEQ ID NO: 47 (C38S, C68S, C76S, C127S) (human) (UniProt Q14116)
[10] = biological target: IL-18 polypeptide C150 (V11I, T34A, C38A, K53A, C76A, C127A) (human) (UniProt Q14116)
[11] = biological target: IL-18 polypeptide of SEQ ID NO: 35 (Y01G, F02A, E06K, M51G, K53A, D54A, S55A, T63A) (human) (UniProt Q14116)
[12] = biological target: IL-18 polypeptide C144 (V11I, C38A, K53A, T63A, C76A, C127A) (human) (UniProt Q14116)
[13] = biological target: IL-18 polypeptide C143 (V11I, C38A, K53A, C76A, C127A) (human) (UniProt Q14116)
[14] = biological target: IL-18 polypeptide C148 (F2A, V11I, C38A, K53A, C76A, C127A) (human) (UniProt Q14116)
[15] = biological target: IL-18 polypeptide C160 (V11I, C38A, K53A, C76A, D110A, C127A) (human) (UniProt Q14116)
[16] = biological target: IL-18 polypeptide C158 (V11I, C38A, K53A, C76A, G108A, C127A) (human) (UniProt Q14116)
[17] = biological target: IL-18 polypeptide of SEQ ID NO: 4 (E6K, C38A, K53A, C68A, M86C) (human) (UniProt Q14116)
[18] = biological target: IL-18 polypeptide of SEQ ID NO: 9 (E6K, C38A, K53A, C68A, D98C) (human) (UniProt Q14116)
[19] = biological target: IL-18 polypeptide C156 (V11I, C38A, N41A, K53A, C76A, C127A) (human) (UniProt Q14116)
[20] = biological target: IL-18 polypeptide of SEQ ID NO: 50 (E06K, K53A, T63A) (human) (UniProt Q14116)
[21] = biological target: IL-18 polypeptide of SEQ ID NO: 6 (E6K, V11I, C38A, K53A, T63A, C68A, C76A, D98C, C127A) (human) (UniProt Q14116)
[22] = biological target: IL-18 polypeptide of SEQ ID NO: 43 (E06K, K53A, S55A, Y01G) (human) (UniProt Q14116)
[23] = biological target: IL-18 polypeptide C166 (V11I, C38A, S55T, C76A, C127A) (human) (UniProt Q14116)
[24] = biological target: IL-18 polypeptide C145 (V11I, C38A, K53A, S55A, C76A, C127A) (human) (UniProt Q14116)
[25] = biological target: IL-18 polypeptide C164 (V11I, C38A, S55H, C76A, C127A) (human) (UniProt Q14116)
[26] = biological target: IL-18 polypeptide C162 (K8E, V11I, C38A, C76A, Q103R, C127A) (human) (UniProt Q14116)
[27] = biological target: IL-18 polypeptide of SEQ ID NO: 5 (E6K, V11I, C38A, K53A, T63A, C68A, C76A, M86C, C127A) (human) (UniProt Q14116)
[28] = biological target: IL-18 polypeptide C151 (V11I, D35A, C38A, K53A, C76A, C127A) (human) (UniProt Q14116)
Sequence of IL-18 polypeptide C151 (V11I, D35A, C38A, K53A, C76A, C127A) (human) (Q14116 37-193 V47I/D71A/C74A/K89A/C112A/C163A): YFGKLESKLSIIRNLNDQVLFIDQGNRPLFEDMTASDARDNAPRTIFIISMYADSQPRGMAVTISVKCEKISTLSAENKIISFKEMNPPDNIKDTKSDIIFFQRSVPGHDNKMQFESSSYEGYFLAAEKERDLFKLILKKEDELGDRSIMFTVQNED

Sequence of IL-18 polypeptide C155 (V11I, C38A, D40A, K53A, C76A, C127A) (human) (Q14116 37-193 V47I/C74A/D76A/K89A/C112A/C163A): as the sequence (Q14116 37-193 V47I/D71A/C74A/K89A/C112A/C163A) above, with A35D, D40A counted along it
Sequence of IL-18 polypeptide of SEQ ID NO: 5 (E6K, V11I, C38A, K53A, T63A, C68A, C76A, M86C, C127A) (human) (Q14116 other isoform, or with tags, fused parts or gaps with the stated changes): as the sequence (Q14116 37-193 V47I/D71A/C74A/K89A/C112A/C163A) above, with E6K, A35D, T63A, C68A, M86C counted along it
Sequence of IL-18 polypeptide of SEQ ID NO: 43 (E06K, K53A, S55A, Y01G) (human) (Q14116 37-193 Y37G/E42K/K89A/S91A): as the sequence (Q14116 37-193 V47I/D71A/C74A/K89A/C112A/C163A) above, with Y1G, E6K, I11V, A35D, A38C, S55A, A76C, A127C counted along it
Sequence of IL-18 polypeptide of SEQ ID NO: 48 (C38S, C68S, C76S, C127S, K70C) (human) (Q14116 37-193 C74S/C104S/K106C/C112S/C163S): as the sequence (Q14116 37-193 V47I/D71A/C74A/K89A/C112A/C163A) above, with I11V, A35D, A38S, A53K, C68S, K70C, A76S, A127S counted along it
Sequence of IL-18 polypeptide C160 (V11I, C38A, K53A, C76A, D110A, C127A) (human) (Q14116 37-193 V47I/C74A/K89A/C112A/D146A/C163A): as the sequence (Q14116 37-193 V47I/D71A/C74A/K89A/C112A/C163A) above, with A35D, D110A counted along it
Sequence of IL-18 polypeptide of SEQ ID NO: 62 (E6K, C38A, K53A, C127A) (human) (Q14116 other isoform, or with tags, fused parts or gaps C38A K53A C127A C38A K53A C127A): as the sequence (Q14116 37-193 V47I/D71A/C74A/K89A/C112A/C163A) above, with E6K, I11V, A35D, A76C counted along it
Sequence of IL-18 polypeptide of SEQ ID NO: 42 (E06K, K53A, S55A, T63A) (human) (Q14116 37-193 E42K/K89A/S91A/T99A): as the sequence (Q14116 37-193 V47I/D71A/C74A/K89A/C112A/C163A) above, with E6K, I11V, A35D, A38C, S55A, T63A, A76C, A127C counted along it
Sequence of IL-18 polypeptide C156 (V11I, C38A, N41A, K53A, C76A, C127A) (human) (Q14116 37-193 V47I/C74A/N77A/K89A/C112A/C163A): as the sequence (Q14116 37-193 V47I/D71A/C74A/K89A/C112A/C163A) above, with A35D, N41A counted along it
Sequence of IL-18 polypeptide C145 (V11I, C38A, K53A, S55A, C76A, C127A) (human) (Q14116 37-193 V47I/C74A/K89A/S91A/C112A/C163A): as the sequence (Q14116 37-193 V47I/D71A/C74A/K89A/C112A/C163A) above, with A35D, S55A counted along it
Sequence of IL-18 polypeptide C148 (F2A, V11I, C38A, K53A, C76A, C127A) (human) (Q14116 other isoform, or with tags, fused parts or gaps V11I C38A K53A C76A C127A V11I C38A K53A C76A C127A): as the sequence (Q14116 37-193 V47I/D71A/C74A/K89A/C112A/C163A) above, with F2A, A35D counted along it
Sequence of IL-18 polypeptide of SEQ ID NO: 1 (native sequence) (human) (Q14116 37-193): as the sequence (Q14116 37-193 V47I/D71A/C74A/K89A/C112A/C163A) above, with I11V, A35D, A38C, A53K, A76C, A127C counted along it
Sequence of IL-18 polypeptide of SEQ ID NO: 4 (E6K, C38A, K53A, C68A, M86C) (human) (Q14116 other isoform, or with tags, fused parts or gaps C38A K53A C68A M86C C38A K53A C68A M86C): as the sequence (Q14116 37-193 V47I/D71A/C74A/K89A/C112A/C163A) above, with E6K, I11V, A35D, C68A, A76C, M86C, A127C counted along it
Sequence of IL-18 polypeptide C144 (V11I, C38A, K53A, T63A, C76A, C127A) (human) (Q14116 37-193 V47I/C74A/K89A/T99A/C112A/C163A): as the sequence (Q14116 37-193 V47I/D71A/C74A/K89A/C112A/C163A) above, with A35D, T63A counted along it
Sequence of IL-18 polypeptide of SEQ ID NO: 9 (E6K, C38A, K53A, C68A, D98C) (human) (Q14116 other isoform, or with tags, fused parts or gaps C38A K53A C68A D98C C38A K53A C68A D98C): as the sequence (Q14116 37-193 V47I/D71A/C74A/K89A/C112A/C163A) above, with E6K, I11V, A35D, C68A, A76C, D98C, A127C counted along it
Sequence of IL-18 polypeptide of SEQ ID NO: 6 (E6K, V11I, C38A, K53A, T63A, C68A, C76A, D98C, C127A) (human) (Q14116 other isoform, or with tags, fused parts or gaps with the stated changes): as the sequence (Q14116 37-193 V47I/D71A/C74A/K89A/C112A/C163A) above, with E6K, A35D, T63A, C68A, D98C counted along it
Sequence of IL-18 polypeptide C143 (V11I, C38A, K53A, C76A, C127A) (human) (Q14116 37-193 V47I/C74A/K89A/C112A/C163A): as the sequence (Q14116 37-193 V47I/D71A/C74A/K89A/C112A/C163A) above, with A35D counted along it
Sequence of IL-18 polypeptide of SEQ ID NO: 35 (Y01G, F02A, E06K, M51G, K53A, D54A, S55A, T63A) (human) (Q14116 37-193 Y37G/F38A/E42K/M87G/K89A/D90A/S91A/T99A): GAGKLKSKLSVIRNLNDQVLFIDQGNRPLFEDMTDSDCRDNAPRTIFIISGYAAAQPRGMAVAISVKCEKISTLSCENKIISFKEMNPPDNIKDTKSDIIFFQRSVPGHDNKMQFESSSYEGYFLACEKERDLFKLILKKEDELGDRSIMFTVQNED
Sequence of IL-18 polypeptide of SEQ ID NO: 37 (S55A) (human) (Q14116 37-193 S91A): as the sequence (Q14116 37-193 Y37G/F38A/E42K/M87G/K89A/D90A/S91A/T99A) above, with G1Y, A2F, K6E, G51M, A53K, A54D, A63T counted along it
Sequence of IL-18 polypeptide of SEQ ID NO: 47 (C38S, C68S, C76S, C127S) (human) (Q14116 37-193 C74S/C104S/C112S/C163S): as the sequence (Q14116 37-193 V47I/D71A/C74A/K89A/C112A/C163A) above, with I11V, A35D, A38S, A53K, C68S, A76S, A127S counted along it
Sequence of IL-18 polypeptide C159 (V11I, C38A, K53A, C76A, H109A, C127A) (human) (Q14116 37-193 V47I/C74A/K89A/C112A/H145A/C163A): as the sequence (Q14116 37-193 V47I/D71A/C74A/K89A/C112A/C163A) above, with A35D, H109A counted along it
Sequence of IL-18 polypeptide C166 (V11I, C38A, S55T, C76A, C127A) (human) (Q14116 37-193 V47I/C74A/S91T/C112A/C163A): as the sequence (Q14116 37-193 V47I/D71A/C74A/K89A/C112A/C163A) above, with A35D, A53K, S55T counted along it
Sequence of IL-18 polypeptide C150 (V11I, T34A, C38A, K53A, C76A, C127A) (human) (Q14116 37-193 V47I/T70A/C74A/K89A/C112A/C163A): as the sequence (Q14116 37-193 V47I/D71A/C74A/K89A/C112A/C163A) above, with T34A, A35D counted along it
Sequence of IL-18 polypeptide C164 (V11I, C38A, S55H, C76A, C127A) (human) (Q14116 37-193 V47I/C74A/S91H/C112A/C163A): as the sequence (Q14116 37-193 V47I/D71A/C74A/K89A/C112A/C163A) above, with A35D, A53K, S55H counted along it
Sequence of IL-18 polypeptide of SEQ ID NO: 60 (E6K, C38Q, K53A) (human) (Q14116 other isoform, or with tags, fused parts or gaps C38Q K53A C38Q K53A): as the sequence (Q14116 37-193 V47I/D71A/C74A/K89A/C112A/C163A) above, with E6K, I11V, A35D, A38Q, A76C, A127C counted along it
Sequence of IL-18 polypeptide C158 (V11I, C38A, K53A, C76A, G108A, C127A) (human) (Q14116 37-193 V47I/C74A/K89A/C112A/G144A/C163A): as the sequence (Q14116 37-193 V47I/D71A/C74A/K89A/C112A/C163A) above, with A35D, G108A counted along it
Sequence of IL-18 polypeptide of SEQ ID NO: 50 (E06K, K53A, T63A) (human) (Q14116 37-193 E42K/K89A/T99A): as the sequence (Q14116 37-193 Y37G/F38A/E42K/M87G/K89A/D90A/S91A/T99A) above, with G1Y, A2F, G51M, A54D, A55S counted along it
Sequence of IL-18 polypeptide C162 (K8E, V11I, C38A, C76A, Q103R, C127A) (human) (Q14116 other isoform, or with tags, fused parts or gaps V11I C38A C76A Q103R C127A V11I C38A C76A Q103R C127A): as the sequence (Q14116 37-193 V47I/D71A/C74A/K89A/C112A/C163A) above, with K8E, A35D, A53K, Q103R counted along it

Fc-fused human IL-18 binding protein isoform a (IL-18BPa) (from UniProt O95998 31-194) (Fc fusion)
IC50 of IL-18BPa inhibition of IFNγ induction in NK-92 cells [1]: 0.681 nM
IC50 of IL-18BPa inhibition of IFNγ induction in NK-92 cells [2]: 654 nM
IC50 of IL-18BPa inhibition of IFNγ induction in NK-92 cells [3]: 1.47 nM
IC50 of IL-18BPa inhibition of IFNγ induction in NK-92 cells [4]: 0.114 nM
IC50 of IL-18BPa inhibition of IFNγ induction in NK-92 cells [5]: 1060 nM
IC50 of IL-18BPa inhibition of IFNγ induction in NK-92 cells [6]: 3.18 nM
IC50 of IL-18BPa inhibition of IFNγ induction in NK-92 cells [7]: 780 nM
IC50 of IL-18BPa inhibition of IFNγ induction in NK-92 cells [8]: 4.46 nM
IC50 of IL-18BPa inhibition of IFNγ induction in NK-92 cells [9]: 0.444 nM
IC50 of IL-18BPa inhibition of IFNγ induction in NK-92 cells [10]: 3.62 nM
IC50 of IL-18BPa inhibition of IFNγ induction in NK-92 cells [11]: > 55 nM
IC50 of IL-18BPa inhibition of IFNγ induction in NK-92 cells [12]: 10.2 nM
IC50 of IL-18BPa inhibition of IFNγ induction in NK-92 cells [13]: 7.52 nM
IC50 of IL-18BPa inhibition of IFNγ induction in NK-92 cells [14]: 1.17 nM
IC50 of IL-18BPa inhibition of IFNγ induction in NK-92 cells [15]: 1.07 nM
IC50 of IL-18BPa inhibition of IFNγ induction in NK-92 cells [16]: 1.81 nM
IC50 of IL-18BPa inhibition of IFNγ induction in NK-92 cells [17]: 396 nM
IC50 of IL-18BPa inhibition of IFNγ induction in NK-92 cells [18]: 961 nM
IC50 of IL-18BPa inhibition of IFNγ induction in NK-92 cells [19]: 6.08 nM
IC50 of IL-18BPa inhibition of IFNγ induction in NK-92 cells [20]: > 1000 nM
IC50 of IL-18BPa inhibition of IFNγ induction in NK-92 cells [21]: 5.85 nM
IC50 of IL-18BPa inhibition of IFNγ induction in NK-92 cells [22]: 27.8 nM
IC50 of IL-18BPa inhibition of IFNγ induction in NK-92 cells [23]: 0.809 nM
IC50 of IL-18BPa inhibition of IFNγ induction in NK-92 cells [24]: 733 nM
IC50 of IL-18BPa inhibition of IFNγ induction in NK-92 cells [25]: 0.885 nM
IC50 of IL-18BPa inhibition of IFNγ induction in NK-92 cells [26]: 0.823 nM
IC50 of IL-18BPa inhibition of IFNγ induction in NK-92 cells [27]: 62.4 nM
IC50 of IL-18BPa inhibition of IFNγ induction in NK-92 cells [28]: 7.85 nM
